Reference: patent publication US10202593B2, “Evolved sortases and uses thereof” (President and Fellows of Harvard College, priority 2013, dated 2019)
Like-named read-outs stand apart in the source and are kept apart here.

What was measured:
Assay type in all cases: biochemical
Abz-LXEXGK(Dnp) peptides = experiment: Enzyme specificity assay (percent substrate conversion by HPLC)
Procedure: (A, D) For each of eSrtA, eSrtA(2A-9), and eSrtA(4S-9), we incubated an activity matched quantity of enzyme (47.5 nM eSrtA, 450 nM eSrtA(2A-9), 115 nM eSrtA(4S-9)) with 10 μM Abz-LXEXGK(Dnp) (SEQ ID NO: 33) and 100 mM Gly-Gly-Gly peptide as listed for 15 minutes. Percent substrate conversion was monitored by reverse phase HPLC analysis and UV absorbance at 355 nm. […] LPEXG: SEQ ID NO: 34.
Assays to determine eSrtA, eSrtA(2A-9) and eSrtA(4S-9) specificity were performed by preparing 10 μM stocks of Abz-LXEXGK(Dnp) (SEQ ID NO: 75) peptides in 300 mM Tris pH 7.5, 150 mM NaCl, 5 mM CaCl2, 5% v/v DMSO, and 100 mM Gly-Gly-Gly-COOH (GGG). Reactions were performed by adding eSrtA(2A-9) to a final concentration of 450 nM, eSrtA(4S-9) to a final concentration of 115 nM or eSrtA to a final concentration of 47.5 nM and a final volume of 100 μL, then incubating at 22.5° C. for 15 minutes. Reactions were quenched by the addition of 0.2 volumes of 5 M HCl, then were injected onto an analytical reverse-phase Eclipse XDB-C18 HPLC column (4.6×150 mm, 5 μm, Agilent Technologies) and chromatographed using a gradient of 10 to 65% acetonitrile with 0.1% TFA in 0.1% aqueous TFA over 13 minutes. Retention times under these conditions for the Abz-LPETGK(Dnp)-CONH2 (SEQ ID NO: 19) substrate, the released GKDnp peptide, and the Abz-LPETGGG-COOH (SEQ ID NO: 20) product were 12.8, 10.4, and 9.1 min, respectively, while the remaining Abz-LXEXGK(Dnp)-CONH2 (SEQ ID NO: 74) substrates varied in retention time between 9 and 13 minutes. To calculate the percent conversion, the ratio of the integrated areas of the GK(Dnp)-CONH2 and Abz-LPETGK(Dnp)-CONH2 (SEQ ID NO: 19) peptide Abs355 peaks were compared directly. Subsequent determination of kcat/Km and KH were performed as described for in vitro SrtA characterization.

LRETG = biological target: T1, LRETG (Staphylococcus aureus, UniProt Q2FV99, A104H/D160K/D165A/E105D/I182V/K138P/K152I/K162H/K173E/K190E/K196S/P94R/S102C/T164N); experiment: In vitro sortase kinetics HPLC assay, LRETG substrate
T1 construct: All expressed sortases lack the N-terminal 59 amino acids; inferred from Ni-NTA purification; made in house; host or cells: E. coli BL21 (DE3), pET29
T1 sequence (Q2FV99 60-206 P94R/S102C/A104H/E105D/K138P/K152I/D160K/K162H/T164N/D165A/G167E/K173E/I182V/K190E/K196S): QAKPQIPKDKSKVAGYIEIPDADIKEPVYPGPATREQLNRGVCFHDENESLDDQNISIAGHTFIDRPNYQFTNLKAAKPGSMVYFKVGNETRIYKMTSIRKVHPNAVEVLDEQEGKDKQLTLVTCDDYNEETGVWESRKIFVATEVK
Procedure: See below for details on sortase expression and purification, and on the synthesis of Abz-LPETGK(Dnp)-CONH2 (SEQ ID NO: 19). […] Reactions were initiated with the addition of enzyme and incubated at 22.5° C. for 3 to 20 minutes before quenching with 0.5 volumes of 1 M HCl. Five to ten nmol of peptide from the quenched reactions were injected onto an analytical reverse-phase Eclipse XDB-C18 HPLC column (4.6×150 mm, 5 μm, Agilent Technologies) and chromatographed using a gradient of 10 to 65% acetonitrile with 0.1% TFA in 0.1% aqueous TFA over 13 minutes. Retention times under these conditions for the Abz-LPETGK(Dnp)-CONH2 (SEQ ID NO: 19) substrate, the released GKDnp peptide, and the Abz-LPETGGG-COOH (SEQ ID NO: 20) product were 12.8, 10.4, and 9.1 min, respectively. To calculate the percent conversion, the ratio of the integrated areas of the Abz-LPETGGG-COOH (SEQ ID NO: 20) and Abz-LPETGK(Dnp)-CONH2 (SEQ ID NO: 19) peptide Abs220 peaks was compared to a standard curve generated by mixing the product and starting peptide in known ratios. To determine […] and Km, reaction rates were fit to the Michaelis-Menten equation using OriginPro 7.0 software. All kinetics values reported represent the average of at least three measurements. Percent conversion was also calculated by using the ratio of the integrated areas of the GK(Dnp)-CONH2 and Abz-LPETGK(Dnp)-CONH2 peptide Abs355 peaks were compared directly (Example 5). To determine kcat and Km, LPETG, reaction rates were fit to the Michaelis-Menten equation using Microsoft Excel using the Solver add-in. To determine Km,GGG and KH, reaction rates were fit to the modified Michaelis-Menten, for which KH is as defined when KH<<Km,GGG.
Assays to determine eSrtA, eSrtA(2A-9) and eSrtA(4S-9) specificity were performed by preparing 10 μM stocks of Abz-LXEXGK(Dnp) (SEQ ID NO: 75) peptides in 300 mM Tris pH 7.5, 150 mM NaCl, 5 mM CaCl2, 5% v/v DMSO, and 100 mM Gly-Gly-Gly-COOH (GGG). Reactions were performed by adding eSrtA(2A-9) to a final concentration of 450 nM, eSrtA(4S-9) to a final concentration of 115 nM or eSrtA to a final concentration of 47.5 nM and a final volume of 100 μL, then incubating at 22.5° C. for 15 minutes. Reactions were quenched by the addition of 0.2 volumes of 5 M HCl, then were injected onto an analytical reverse-phase Eclipse XDB-C18 HPLC column (4.6×150 mm, 5 μm, Agilent Technologies) and chromatographed using a gradient of 10 to 65% acetonitrile with 0.1% TFA in 0.1% aqueous TFA over 13 minutes. […]

[1] = biological target: T2, LPESG (Abz-LPESGK(Dnp)-CONH2) (Staphylococcus aureus, UniProt Q2FV99, D160N/D165A/K190E/K196T/P94R); experiment: In vitro sortase kinetics HPLC assay, LPESG substrate; conditions: ratio of kcat/KM
T2 construct: All expressed sortases lack the N-terminal 59 amino acids; inferred from Ni-NTA purification; made in house; host or cells: E. coli BL21 (DE3), pET29
T2 sequence (Q2FV99 60-206 P94R/D160N/D165A/G167E/K190E/K196T): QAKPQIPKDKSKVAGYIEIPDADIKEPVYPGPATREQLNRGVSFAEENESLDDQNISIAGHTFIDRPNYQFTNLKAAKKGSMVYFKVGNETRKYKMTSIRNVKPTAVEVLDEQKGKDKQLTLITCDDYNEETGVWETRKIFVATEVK
In short: (§1)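 Abz-LXEXGK(Dnp) peptides in 300 mM Tris pH 7.5, 150 mM NaCl, 5 mM CaCl2, 5% DMSO, GGG; 22.5° C., acid-quenched, converted fraction by reverse-phase HPLC peak areas. kcat and Km from eight substrate concentrations fit to Michaelis-Menten; KH at 1 mM substrate over eight GGG levels.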

[2] = biological target: T3, LAETG (Abz-LAETGK(Dnp)-CONH2) (Staphylococcus aureus, UniProt Q2FV99, D160N/D165A/K190E/K196T/P94R); experiment: In vitro sortase kinetics HPLC assay, LAETG substrate; conditions: candidate LAETG target
T3 construct: All expressed sortases lack the N-terminal 59 amino acids; inferred from Ni-NTA purification; made in house; host or cells: E. coli BL21 (DE3), pET29
T3 sequence (Q2FV99 60-206 P94R/D160N/D165A/G167E/K190E/K196T): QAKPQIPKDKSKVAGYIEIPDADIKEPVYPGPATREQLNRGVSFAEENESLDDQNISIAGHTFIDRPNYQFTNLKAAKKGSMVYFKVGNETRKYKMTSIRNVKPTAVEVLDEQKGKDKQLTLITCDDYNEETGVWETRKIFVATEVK
In short: as §1

B1: eSrtA(2A-9): P94R, S102C, A104H, E105D, K138P, K152I, N160K, K162H, T164N, D165A, K173E, I182V, K190E, T196S (protein)
chain: QAKPQIPKDKSKVAGYIEIPDADIKEPVYPGPATREQLNRGVCFHDENESLDDQNISIAGHTFIDRPNYQFTNLKAAKPGSMVYFKVGNETRIYKMTSIRKVHPNAVEVLDEQEGKDKQLTLVTCDDYNEETGVWESRKIFVATEVK
In the case of B1, the “reduced activity on the next most active substrates, LSETG and LRETG, versus LAETG” value (Abz-LXEXGK(Dnp) peptides; position 2 substrate profile, FIG. 20E) is reported as greater than 20 fold, the “KH” value (LRETG; 1 mM LRETG) is reported as 47.5 ± 1.3 µM and the Km (LRETG; 1 mM LRETG, read-out: Km,GGG) is reported as 628 ± 11 µM. For the same molecule, the “Kcat (Hz)” value (LRETG; Sub LRETG, 100 mM GGG) was 0.25 ± 0.02 Hz and the Km (LRETG; Sub LRETG, 100 mM GGG, read-out: Km) was 1070 ± 63 µM.

B2: eSrtA (protein)
chain: QAKPQIPKDKSKVAGYIEIPDADIKEPVYPGPATREQLNRGVSFAEENESLDDQNISIAGHTFIDRPNYQFTNLKAAKKGSMVYFKVGNETRKYKMTSIRNVKPTAVEVLDEQKGKDKQLTLITCDDYNEETGVWETRKIFVATEVK
In the case of B2, the “preference for LPETG over LPESG” value [1] is reported as 5 fold and the Km [2] is reported as 6100 µM.

B3: eSrtA(4S-9): P94R, N98D, S102C, A104V, A118T, F122A, K134R, F144L, D160N, D165A, I182V, E189F, K190E, K196T (protein)
chain: QAKPQIPKDKSKVAGYIEIPDADIKEPVYPGPATREQLDRGVCFVEENESLDDQNISITGHTAIDRPNYQFTNLRAAKKGSMVYLKVGNETRKYKMTSIRNVKPTAVEVLDEQKGKDKQLTLVTCDDYNFETGVWETRKIFVATEVK
For B3, the “difference in transpeptidation of LPESG over LPETG” value (Abz-LXEXGK(Dnp) peptides; FIG. 20A, 10 μM peptide, 100 mM GGG, 15 minutes) was “approximately 40 fold” and the “activity on the substrates LPEAG, LPECG and LPESG” value (Abz-LXEXGK(Dnp) peptides; position 4 substrate profile, FIGS. 20A-B) was “significant activity”.
